We go through 1 molecule from paper PMC8650744.

The target in this series is HIV-1 Matrix (MA) WT (HIV-1, UniProt C1JB69 1-131). Briefly: ITC.

B1: tRNALys3 A7U/U66A (structured_RNA)
RNA: GCCCGGUUAGCUCAGUCGGUAGAGCAUCAGACUUUUAAUCUGAGGGUCCAGGGUUCAAGUCCCUGAUCGGGCGCCA
Regarding B1, the binding signal was 2 fold Kd increase vs WT tRNA.
